Assay results reported in the supplement of paper PMC9170038.

The sequences below were run on MS2 coat protein (assay: apparent KD of MS2 coat protein, switch ON state; designed switch direction (-1 OFF switch, 1 ON switch): -1; higher = weaker reporter binding). Conditions: FMN input: 0 or 200 uM; Eterna round: R93 (includes R88 designs).
Summary of the method: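 With or without constant ligand, designed RNA switches in 100 mM Tris-HCl pH 7.5, 80 mM KCl and 4 mM MgCl2 were titrated with SNAP-549-labelled MS2 coat protein. Concentrations went up in twofold steps from 0.7 or 1.5 nM to 3 µM. The switches had been transcribed on-chip from Illumina sequencing clusters, and apparent KD is the per-design median of normalised cluster binding-curve fits.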

Point of comparison: “AAGAUCAGAGGAUAUACAUAAGGUGAUGGAAACAUCGCCAAACAUGAGGAUCACCCAUGUAGAAGGCUGAUCAA [Mat - Exclusion 2 - JL mod - D61]”, “apparent KD of MS2 coat protein” value 35.7 nM. Against it:
- AAGUUAUUAGGAUAUACUAGUGCGAUUAAUACGCUGAUAGUACAUGAGGAUCACCCAUGUAGAAGGAAUAAAAA [JR_Exc002_Sub409] — within 1.5-fold, 35.1 nM
- AAGAGUAGAGGAUAUACAUGAGGAUCACCCAUGUAAUCCGGAUAAGGAAGCAUGUCGUGUAGAAGGCUGCAUGA [MOD 3 of Nando (MS2 Riboswitches- Exclusion 3)] — 2.3-fold lower, 15.5 nM
- AAGGGACAUGAGGAUCACCCAUGUCAGGAUAUGAUGCGAAUAAAGAAAGAAGAAAGCAUCAGAAGGGACGCCAA [58%, Disencluded 3, 5] — within 1.5-fold, 25.4 nM
- AAGAAUCGAGGAUAUACAUGAGGAUCACCCAUGUAAAAGAAAGAGGGAAAAGAGAAAAGUAGAAGGCGAAAGAA [Ptolemy Memphitis] — within 1.5-fold, 45.9 nM
- AAAAAACAUGAGGAUCACCCAUGUCAGGAUAUGAACGAAAAUAAAUAAAAAUAAAAGUUCAGAAGGGACGAAAA [66%, Wbt, 17] — within 1.5-fold, 38 nM
- AUAAAGUCAGGAUAUGUAAAAAUAACGAAAGUUAUAAAUAAACAGAAGGGACAUGAGGAUCACCCAUGUACAAU [Opal 15] — within 1.5-fold, 25.4 nM
- UCCGGACAUGAGGAUCACCCAUGUGAGGAUAUAUAAAGUGGGACUGGAAACAGUCCCAAUAGAAGGCACAUGAA [Celaar] — 1.7-fold lower, 21.2 nM
- AAGUACUCAGGAUAUACAUGAGGAUCACCCAUGUGAAAAAAGCGUAAAAAACGCACAUGUAGAAGGGAGUACAA [JL In thr Red Again] — 3.4-fold higher, 122 nM
- AAGGGACAUGAGGAUCACCCAUGUCAGGAUAUGAUGCGAAUAAAGAAAGAAGAAAGCAUCAGAAGGGACGCCUA [58%, Disencluded 3, 6] — 1.8-fold lower, 19.3 nM
- AAGAGGUGAGGAUAUCGAAGAAGAAGAAGAAGAAGAAGAAACGAGAAGGCACAUGAGGAUCACCCAUGUAAGAA [Exclusion 4] — 1.5-fold lower, 23.4 nM
- AGAUGACAUGAGGAUCACCCAUGUAAGGAUAUACGAGUAGGAGAAUAAAAUGAUAGAAGUAGAAGGUACGUAGA ['Exclusion 1' Lab (2)] — 1.9-fold higher, 68 nM
- AAAAAGCGAGGAUAUACAUGAGGAUCACCCAUGUAAAAAAAAAGAGAUGAAACAUCAUGUAGAAGGCGCAAAAA [Excls3-I] — 3.7-fold higher, 131 nM
- AAGAAGGCAGGAUAUACAAAAUAAAAGAAAAGAAAGAAAGAACAUGAGGAUCACCCAUGUAGAAGGGCCAAGAA [Seankhibre Amenemhet VI] — 1.6-fold higher, 58.3 nM
- ACGUUGAGAGGAUAUACGAACAUGUCAAAAGACGUGAAGGGACAUGAGGAUCACCCAUGUAGAAGGCUCAACGA [Mat - Exclusion 2 - JL mod - D9] — within 1.5-fold, 46.3 nM
- AACUGACAUGAGGAUCACCCAUGUCAGGAUAUGACAUCGAAAAAAAAAAAAAUCGUUGUCAGAAGGGACAUGGG [Design 73: Sub-opt QB] — 3-fold lower, 11.9 nM
- AAGAAACAUGAGGAUCACCCAUGUCAGGAUAUUGAAAAGAAAAGAAAAGAAAGAAGAACAAGAAGGGACAAAGG [Neferkare (III) Neby] — within 1.5-fold, 37.1 nM
- GAAGAACAUGAGGAUCACCCAUGUCAGGAUAUGCAGAAGGGAAUAAUAACUUCUGGAAGCAGAAGGGACAAGAA [Ex 1 May 47] — within 1.5-fold, 29.6 nM
- CAGUACUGAGGAUAUACAUGAGGAUCACCCAUGUGGUUAAGCUAGGAAACUAGCACAUGUAGAAGGCAGUACUG [Ex3: 814] — within 1.5-fold, 50.1 nM
- GCAAAGUGAGGAUAUACGCGAACAAUAAAAAUAAAGAAAGCGUAGAAGGCACAUGAGGAUCACCCAUGUCCAGC [Mat - Exaclusion 4 - Eli mod - D78] — 1.5-fold lower, 23.5 nM
- AACAGUACAGGAUAUACAUGAGGAUCACCCAUGUGAAAAUUAAGUGGGAAACCACAAGGUAGAAGGGUACUGGA [Mat - Exclusion 3 - Eli mod - D64] — within 1.5-fold, 27.1 nM
- GGUUGAAAAGGAUAUACAUGAGGAUCACCCAUGUGAGAGAAAAAAGUGAGAAAGAAAAGUAGAAGGUUUUGACG [salish99-ex3-61] — 1.6-fold lower, 22.8 nM
- CUCUAGUGAGGAUAUGGAAGAAAAGAAGAGAAAGAAAAGAACCAGAAGGCACAUGAGGAUCACCCAUGUAAGAA [EteRNA is fun!] — within 1.5-fold, 38.9 nM
- GUAAACCUAGGAUAUACAUGAGGAUCACCCAUGUAAAGUUUCGUAAAAAGAAAAUCGAGUAGAAGGAGGUAGAU [JR_Exc003_Sub1222] — 1.6-fold lower, 22.5 nM
- GAGGCUGAAGGAUAUACAAGGGCCUCACCGCCAAAACGGAAACAUGAGGAUCACCCAUGUAGAAGGUCAAUAAA [Reisvexe] — 1.6-fold higher, 57.1 nM
- UAAACCCUAGGAUAUACAUGAGGAUCACCCAUGUUUGUCGAAGAACGAACAGUCCUCAGUAGAAGGAGGACGAA [Geriza] — within 1.5-fold, 27.4 nM
- AAGUUAUUAGGAUAUACUAGUGCAAUUAAUACGCUGAUAGUACAUGAGGAUCACCCAUGUAGAAGGAAUAAAAA [Mat - Exclusion 2 - JL mod - D66] — within 1.5-fold, 30.5 nM
- AACAGUACAGGAUAUACAUGAGGAUCACCCAUGUAGAGAGAAUAAAACAAAAAUAAAAGUAGAAGGGUACUGGA [Ruby 48] — 1.6-fold lower, 21.8 nM
- AAAAAACAUGAGGAUCACCCAUGUUAGGAUAUUCCUAAAAAAAAAAAAAAAAAAAAUGGAAGAAGGGACAAAAA [excalibur 9] — 1.7-fold lower, 21.2 nM
- AAGAAGACAGGAUAUACAUGAAAGAAAGAAAAGAAAAGAAAACAUGAGGAUCACCCAUGUAGAAGGGUCAAGAA [EteRNA is fun!] — 1.5-fold lower, 23.5 nM
- AACUGGGCAGGAUAUACAUGAGGAUCACCCAUGUAAAGAAAAGAAAGGUCCGAGGAAAGUAGAAGGGCCUGGAA [Variant 5 of Mod 1 of Ex3 sub 3, by Tesla's Dusciple Round 1] — within 1.5-fold, 40.6 nM
- AGGAAACAUGAGGAUCACCCAUGUGAGGAUAUUGAAAAGAAAAGAAAAGAAAGAAGAACAAGAAGGUACAAGAA [Nyuserre Ini] — 1.6-fold lower, 22.3 nM
- AAAAAACAUGAGGAUCACCCAUGUCAGGAUAUCGAAAAGAAAAGAAAAGAAAGAAGAACGAGAAGGGACAAGAA [Menkaura] — within 1.5-fold, 29.3 nM
- AAAAAGUGAGGAUAUUCGGAUAGGAAAACGAAAACCUAUCCGAAGAAGGCACAUGAGGAUCACCCAUGUAAAGA [Mat - Exaclusion 4 - Eli mod - D40] — within 1.5-fold, 30.8 nM
- AAAAAACAUGAGGAUCACCCAUGUGAGGAUAUGCUAAAAAAAUCCGCAUGAAAAAAUAGCAGAAGGCACAUAAA [PK2] — within 1.5-fold, 29.6 nM
- CCCAUGUCAGGAUAUCAGUAGUAAAAAAAAAAAAUUACUACUGAGAAGGGACAUGAGGAUCACCCAUGUUCCAA [EX4 318: Super Stable 18] — 1.6-fold higher, 58.3 nM
- AGAAAGUCAGGAUAUACGAAAAAGAAAAAAGACGAGAACGGACAUGAGGAUCACCCAUGUAGAAGGGACAAGAA [Diamond 14] — 1.9-fold higher, 66.4 nM
- AAAAAACAUGAGGAUCACCCAUGUCAGGAUAUGCCAACCUAAAAAAAAAAAAAAAAACGUAGAAGGGACAAAAA [Bilbo Confounded 2 - Jieux - Exclusion 1] — within 1.5-fold, 28.7 nM
- AACUAGUGAGGAUAUGCAAGAAAAAAAAAAAAAAUAAAGGGACAUGAGGAUCACCCAUGUAGAAGGCACUAACA [Diamond 68] — within 1.5-fold, 42.7 nM
- AGUCAUACAGGAUAUACAUGAGGAUCACCCAUGUAAAUCCUAAAAAAGUGAUCCUCAUGUAGAAGGGUAUGACA [EX3 220: Super Stable 20] — 1.9-fold lower, 19.1 nM
- AACAGUACAGGAUAUACAUGAGGAUCACCCAUGUGAGAAUUAAGCAGCGUAACACACAGUAGAAGGGUAAUGGA [Ruby 20] — within 1.5-fold, 46.4 nM
- AAAUAGUUAGGAUAUACAUGAGGAUCACCCAUGUGGACUUAUGGAGAAUAGUCUAAUGGUAGAAGGGACUAAAA [EX2 Malc#24] — 2-fold higher, 69.8 nM
- CUCUUGUGAGGAUAUCUAAGAAAAGAAAAGAAAGAAAAGAAAGAGAAGGCACAUGAGGAUCACCCAUGUAAGAA [EteRNA is fun!] — the same, 35.7 nM
- AACCAACAUGAGGAUCACCCAUGUCAGGAUAUGCAAACAACAAACAACAAACAACAAAGCAGAAGGGACAAAAA [Amethyst 82] — 2-fold lower, 17.8 nM
- AAAAAACAUGAGGAUCACCCAUGUAAGGAUAUCGGAAAAGGAAAAAAAAAAAAGAAGACGAGAAGGUACACCAA — within 1.5-fold, 25.9 nM
